Data on seven molecules can be found in PMC8567202, “Phosphoinositide-binding activity of Smad2 is essential for its function in TGF-β signaling” (The Journal of Biological Chemistry, 2021).

Sequences and labels used below:
B1: Smad2 WT: bacterially expressed full-length Smad2 wild-type (protein)
chain: MSSILPFTPPVVKRLLGWKKSAGGSGGAGGGEQNGQEEKWCEKAVKSLVKKLKKTGRLDELEKAITTQNCNTKCVTIPSTCSEIWGLSTANTVDQWDTTGLYSFSEQTRSLDGRLQVSHRKGLPHVIYCRLWRWPDLHSHHELKAIENCEYAFNLKKDEVCVNPYHYQRVETPVLPPVLVPRHTEILTELPPLDDYTHSIPENTNFPAGIEPQSNYIPETPPPGYISEDGETSDQQLNQSMDTGSPAELSPTTLSPVNHSLDLQPVTYSEPAFWCSIAYYELNQRVGETFHASQPSLTVDGFTDPSNSERFCLGLLSNVNRNATVEMTRRHIGRGVRLYYIGGEVFAECLSDSAIFVQSPNCNQRYGWHPATVCKIPPGCNLKIFNNQEFAALLAQSVNQGFEAVYQLTRMCTIRMSFVKGWGAEYRRQTVTSTPCWIELHLNGPLQWLDKVLTQMGSPSVRCSSMS
modifications: left off: His6, N-terminal, state not stated
notes: bacterially expressed full-length Smad2 wild-type
B2: EGFP-Smad2 WT: mouse EGFP-Smad2 wild type transfected into HeLa cells (protein, UniProt Q62432 2-467, looked up)
Mothers against …: SSILPFTPPVVKRLLGWKKSAGGSGGAGGGEQNGQEEKWCEKAVKSLVKKLKKTGRLDELEKAITTQNCNTKCVTIPSTCSEIWGLSTANTVDQWDTTGLYSFSEQTRSLDGRLQVSHRKGLPHVIYCRLWRWPDLHSHHELKAIENCEYAFNLKKDEVCVNPYHYQRVETPVLPPVLVPRHTEILTELPPLDDYTHSIPENTNFPAGIEPQSNYIPETPPPGYISEDGETSDQQLNQSMDTGSPAELSPTTLSPVNHSLDLQPVTYSEPAFWCSIAYYELNQRVGETFHASQPSLTVDGFTDPSNSERFCLGLLSNVNRNATVEMTRRHIGRGVRLYYIGGEVFAECLSDSAIFVQSPNCNQRYGWHPATVCKIPPGCNLKIFNNQEFAALLAQSVNQGFEAVYQLTRMCTIRMSFVKGWGAEYRRQTVTSTPCWIELHLNGPLQWLDKVLTQMGSPSVRCSSMS
modifications: EGFP fusion
notes: mouse EGFP-Smad2 wild type transfected into HeLa cells
B3: Smad2-W422A: W422A mutant of full-length Smad2; specific PI(4,5)P2 binding-compromised (protein)
chain: MSSILPFTPPVVKRLLGWKKSAGGSGGAGGGEQNGQEEKWCEKAVKSLVKKLKKTGRLDELEKAITTQNCNTKCVTIPSTCSEIWGLSTANTVDQWDTTGLYSFSEQTRSLDGRLQVSHRKGLPHVIYCRLWRWPDLHSHHELKAIENCEYAFNLKKDEVCVNPYHYQRVETPVLPPVLVPRHTEILTELPPLDDYTHSIPENTNFPAGIEPQSNYIPETPPPGYISEDGETSDQQLNQSMDTGSPAELSPTTLSPVNHSLDLQPVTYSEPAFWCSIAYYELNQRVGETFHASQPSLTVDGFTDPSNSERFCLGLLSNVNRNATVEMTRRHIGRGVRLYYIGGEVFAECLSDSAIFVQSPNCNQRYGWHPATVCKIPPGCNLKIFNNQEFAALLAQSVNQGFEAVYQLTRMCTIRMSFVKGAGAEYRRQTVTSTPCWIELHLNGPLQWLDKVLTQMGSPSVRCSSMS
modifications: left off: His6, N-terminal, state not stated
B4: Smad2- R427A/R428A: double mutant of full-length Smad2; PI(4,5)P2 and TβRI binding-compromised (protein)
chain: MSSILPFTPPVVKRLLGWKKSAGGSGGAGGGEQNGQEEKWCEKAVKSLVKKLKKTGRLDELEKAITTQNCNTKCVTIPSTCSEIWGLSTANTVDQWDTTGLYSFSEQTRSLDGRLQVSHRKGLPHVIYCRLWRWPDLHSHHELKAIENCEYAFNLKKDEVCVNPYHYQRVETPVLPPVLVPRHTEILTELPPLDDYTHSIPENTNFPAGIEPQSNYIPETPPPGYISEDGETSDQQLNQSMDTGSPAELSPTTLSPVNHSLDLQPVTYSEPAFWCSIAYYELNQRVGETFHASQPSLTVDGFTDPSNSERFCLGLLSNVNRNATVEMTRRHIGRGVRLYYIGGEVFAECLSDSAIFVQSPNCNQRYGWHPATVCKIPPGCNLKIFNNQEFAALLAQSVNQGFEAVYQLTRMCTIRMSFVKGWGAEYAAQTVTSTPCWIELHLNGPLQWLDKVLTQMGSPSVRCSSMS
modifications: left off: His6, N-terminal, state not stated
B5: Smad2-K420A: K420A mutant of full-length Smad2; predominantly TβRI binding-compromised (protein)
chain: MSSILPFTPPVVKRLLGWKKSAGGSGGAGGGEQNGQEEKWCEKAVKSLVKKLKKTGRLDELEKAITTQNCNTKCVTIPSTCSEIWGLSTANTVDQWDTTGLYSFSEQTRSLDGRLQVSHRKGLPHVIYCRLWRWPDLHSHHELKAIENCEYAFNLKKDEVCVNPYHYQRVETPVLPPVLVPRHTEILTELPPLDDYTHSIPENTNFPAGIEPQSNYIPETPPPGYISEDGETSDQQLNQSMDTGSPAELSPTTLSPVNHSLDLQPVTYSEPAFWCSIAYYELNQRVGETFHASQPSLTVDGFTDPSNSERFCLGLLSNVNRNATVEMTRRHIGRGVRLYYIGGEVFAECLSDSAIFVQSPNCNQRYGWHPATVCKIPPGCNLKIFNNQEFAALLAQSVNQGFEAVYQLTRMCTIRMSFVAGWGAEYRRQTVTSTPCWIELHLNGPLQWLDKVLTQMGSPSVRCSSMS
modifications: left off: His6, N-terminal, state not stated
B6: Smad2-E425K: charge-reversal mutant of full-length Smad2; PI(4,5)P2 and TβRI binding-enhanced (protein)
chain: MSSILPFTPPVVKRLLGWKKSAGGSGGAGGGEQNGQEEKWCEKAVKSLVKKLKKTGRLDELEKAITTQNCNTKCVTIPSTCSEIWGLSTANTVDQWDTTGLYSFSEQTRSLDGRLQVSHRKGLPHVIYCRLWRWPDLHSHHELKAIENCEYAFNLKKDEVCVNPYHYQRVETPVLPPVLVPRHTEILTELPPLDDYTHSIPENTNFPAGIEPQSNYIPETPPPGYISEDGETSDQQLNQSMDTGSPAELSPTTLSPVNHSLDLQPVTYSEPAFWCSIAYYELNQRVGETFHASQPSLTVDGFTDPSNSERFCLGLLSNVNRNATVEMTRRHIGRGVRLYYIGGEVFAECLSDSAIFVQSPNCNQRYGWHPATVCKIPPGCNLKIFNNQEFAALLAQSVNQGFEAVYQLTRMCTIRMSFVKGWGAKYRRQTVTSTPCWIELHLNGPLQWLDKVLTQMGSPSVRCSSMS
modifications: left off: His6, N-terminal, state not stated
B7: Smad2-Y426A: Y426A mutant of full-length Smad2; specific PI(4,5)P2 binding-compromised (protein)
chain: MSSILPFTPPVVKRLLGWKKSAGGSGGAGGGEQNGQEEKWCEKAVKSLVKKLKKTGRLDELEKAITTQNCNTKCVTIPSTCSEIWGLSTANTVDQWDTTGLYSFSEQTRSLDGRLQVSHRKGLPHVIYCRLWRWPDLHSHHELKAIENCEYAFNLKKDEVCVNPYHYQRVETPVLPPVLVPRHTEILTELPPLDDYTHSIPENTNFPAGIEPQSNYIPETPPPGYISEDGETSDQQLNQSMDTGSPAELSPTTLSPVNHSLDLQPVTYSEPAFWCSIAYYELNQRVGETFHASQPSLTVDGFTDPSNSERFCLGLLSNVNRNATVEMTRRHIGRGVRLYYIGGEVFAECLSDSAIFVQSPNCNQRYGWHPATVCKIPPGCNLKIFNNQEFAALLAQSVNQGFEAVYQLTRMCTIRMSFVKGWGAEARRQTVTSTPCWIELHLNGPLQWLDKVLTQMGSPSVRCSSMS
modifications: left off: His6, N-terminal, state not stated

For one data set, the system named is HeLa cells. The data set can be described thus: Smad2 phosphorylation (pS465/pS467), Western blot. Format: cell-based. To be noted: HeLa cells, PI(4,5)P2 depletion. On the procedure: Two separate gels were used to accommodate all mutants. An empty vector transfection (vehicle) was used for a negative control for each gel. Glyceraldehyde 3-phosphate dehydrogenase (GAPDH) was used as a gel loading control. Data in A and B are quantified in Fig. S3A. C, TGF-β stimulated (10 ng/ml for 1 h) nuclear translocation of mouse EGFP-WT, -K420A, -W422A, -E425K, -Y426A, and -R427A/R428A transfected into HeLa cells whose endogenous Smad2 was suppressed by siRNA. For Smad2-WT, the effect of PI(4,5)P2 depletion was measured. Arrows indicate nuclear accumulation of EGFP-WT and EGFP-E425K. Scale bars indicate 10 μm. D, quantification of (C). (Inuc/Icyto) was calculated from total nuclear and cytosolic fluorescence intensity values. Blank and black bars indicate values before and after TGF-β stimulation. Error bars indicate S.D. values from >3 measurements (n = 10). E, Smad2 transcriptional activity measured by the luciferase assay. Blank and black bars indicate values before and after TGF-β stimulation. Error bars indicate S.D. values from >3 measurements (n = 10).
HeLa cells were plated on 6-well or 48-well plates at the density of ∼1.5 × 10^5 or 1.25 × 10^4 for 24 h and 30 nM human Smad2 (or SARA) DsiRNAs (IDT: see sequences below) were transfected into cells using the jetPRIME system (Polyplus transfection) according to the manufacturer's protocols. After transfection with siRNA for 24 h, the medium was exchanged with a fresh one and cells were transfected again with 1 μg/ml of the mouse Smad2 expression vector. In total, 24 to 48 h after transfection, cells were used for further treatment or Western blot analysis. The sequences of DsiRNAs are as follows: SMAD2-siRNA1 (sense: 5′-[…]-3′; antisense: 5′-[…]-3′); SMAD2-siRNA2 (sense: 5′-[…]-3′; antisense: 5′-[…]-3′); SMAD2-siRNA3 (sense: 5′-[…]-3′; antisense: 5′-[…]-3′); SARA-siRNA1 (sense: 5′-[…]-3′; antisense: 5′-[…]-3′); SARA-siRNA2 (sense: 5′-[…]-3′; antisense: 5′-[…]-3′).
Transfected cells or treated cells were lysed in the cell lysis buffer (20 mM Tris-HCl, pH 7.5, containing 150 mM NaCl, 1 mM Na2EDTA, 1 mM EGTA, 1% Triton-X, protease inhibitors, and phosphatase inhibitors) (1 mM Na3VO4, 1 mM NaF, 1 μg/ml leupeptin, 1 mM phenylmethanesulfonylfluoride, 1.5 mM benzamidine, and 2 μg/ml pepstatin). The total protein concentration of the cell lysate was determined by the Pierce BCA protein assay kit (Thermo scientific). The same amounts of proteins were loaded onto a polyacrylamide gel to run sodium dodecyl sulfate–polyacrylamide gel electrophoresis. Proteins were separated and transferred to a polyvinylidene difluoride membrane. The membrane was blocked with 5% bovine serum albumin for 1 h and incubated overnight at 4 °C with various antibodies (1:1000 dilution for all antibodies). After the unbound antibodies were removed by washing with 0.1% Tris buffer saline with 0.1% Tween20, the membranes were incubated with the horseradish peroxidase secondary antibody (1:5000 dilution) for 1 h at room temperature. The membranes were washed three more times with 0.1% Tris buffer saline with 0.1% Tween20 to remove the unbound horseradish peroxidase secondary antibody before imaging. The chemiluminescence intensity of protein bands in the gel was analyzed and documented by the Azure 500Q Imaging System.
In the case of B1, the “Smad2 phosphorylation after PI(4,5)P2 depletion” value is given as “greatly suppressed Smad2 phosphorylation”.

The same data set, now with this note: Smad2-depleted HeLa cells, 10 ng/ml TGF-β, 48 h.
Regarding B2, the “Smad2 phosphorylation after TGF-β stimulation” value is “fully restored after TGF-β stimulation”.
Same read-out and setting: the result for B3 reads “minimally phosphorylated”; that for B4, “minimally phosphorylated”.
On to B5, for which the “Smad2 phosphorylation after TGF-β stimulation” value was “little phosphorylation after TGF-β stimulation”.
Same read-out and setting: the result for B6 reads “phosphorylated to a larger extent than WT”; that for B7, “minimally phosphorylated”.
